In the supplement of paper PMC11780869:

Test system: Bacillus subtilis
Experiment: cleaved RNA product abundance (RNA/gDNA barcode ratio) relative to median wild-type variant (ratio to wild type); higher = more accumulation of the downstream cleavage product
Description: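 MPRA in B. subtilis. Mutagenized RNase Y cleavage-site regions (9% mutation rate) were inserted into a barcoded reporter mRNA (truncated aprE or tetM). Cells were grown in LB at 37°C to OD600 0.3. The cleaved RNA isoform was gel-purified and its barcodes counted; the RNA:gDNA barcode ratio was normalised to the median wild-type variant, and the median over barcodes is reported per variant. The printed sequence is the variable window only; the reporter flanks are not printed.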

[1] = experiment (reporter, strain, medium): exp 8a: truncated aprE reporter, strain BJT201 with 2% xylose (RNase J1 expressed), cleavage site: glnRA (positions -5 to +31 mutated)
[2] = experiment (reporter, strain, medium): exp 4a: truncated aprE reporter, strain BJT201 with 2% xylose (RNase J1 expressed), cleavage site: cggR-gapA (positions -7 to +36 mutated)
[3] = experiment (reporter, strain, medium): exp 2b: truncated aprE reporter, strain BJT200, cleavage site: cggR-gapA (positions -7 to +36 mutated)
[4] = experiment (reporter, strain, medium): exp 6: tetM reporter, strain 168, cleavage site: cggR-gapA (positions -7 to +36 mutated)

Row | Sequence | cleaved RNA product abundance [1] | cleaved RNA product abundance [2] | also measured
1 | CGACATGTCCCGCTTCTTTCATTAATCCGTTAGCAACTGTTATGCTAAATACATTTACCTTTTAAGAGGAGGAAT | 0.111 | – | –
2 | CGACATGTCCCGCTTCTTTCATTAATCCGTTAGCAACTGTTTTGCTATATTTATTTACCTTTTAAGAGGAGGAAT | 0.495 | – | –
3 | CGACATGTCCCGCTTCTTTCATTAATCCTTTAGCAACTGTTTTGCTATATATATTTACCTTTTAAGAGGAGGAAT | 0.909 | – | –
4 | CGACATGTCCCGCTTCTTTCATTAATCCGTTAGCAACTGATTTTCTATATACATTTACCTTTTAAGAGGAGGAAT | 0.689 | – | –
5 | ACAGACGAAGGAGCCGCAAAGAAGTTATTAAGGGATTAATAATCCCTCGATATAAATATCTCTCACTTATTTAAA | – | 0.594 | –
6 | ACAGACGAAGGAGCCGCAAAGAAGTTATTAAGGAATGAATAATCCCTCAATTTAAATATCTCTCACTTATTTAAA | – | 0.0591 | cleaved RNA product abundance [3]: 0.0901
7 | ACAGACGAAGGAGCCGCAAAGAAGTTATTAAGGGATAAATAATCCCTCACTATAAATATCTCTCACTTATTTAAA | – | 0.193 | cleaved RNA product abundance [3]: 0.247
8 | ACAGACGAAGGAGCCGCAAAGAAGTTATTAAGGGATGAATACTCCCTTAATATAAATATCTCTCACTTATTTAAA | – | 0.47 | –
9 | ACAGACGAAGGAGCCGCAAAGAAGTTATTAAGGGATGAATAACCCCTAAATATAAATATCTCTCACTTATTTAAA | – | 0.542 | –
10 | CGACATGTCCCGCTTCTTTCATTATTCCGTTAGCAACTGTTTTGCTATATACATTAACCTTTTAAGAGGAGGAAT | 1.44 | – | –
11 | ACAGACGAAGGAGCCGCAAAGAAGTTATTATGGGATGAATAATCCCTCAATATAAAAATCTCTCACTTATTTAAA | – | 0.391 | cleaved RNA product abundance [3]: 0.279
12 | CGACATGTCCCGCTTCTTTCATTAATCCGTTAGCAACTGTTTGGCTATATATATTTACCTTTTAAGAGGAGGAAT | 0.546 | – | –
13 | ACAGACGAAGGAGCCGCAAAGAAGTTATTAAGGGATGATTTATCCCTCAATATAAATATCTCTCACTTATTTAAA | – | 0.771 | –
14 | CGACATGTCCCGCTTCTTTCATTAATCCGTTAGCAACTGTGTTGCTATATACATTTACATTTTAAGAGGAGGAAT | 0.517 | – | –
15 | ACAGACGAAGGAGCCGCAAAGAAGTTATTAAGGGATGAATAATCCTTCAATATAAATATCTCTCACTTATTTAAG | – | 0.558 | –
16 | CGACATGTCCCGCTTCTTTCATTAATCCGTTAGCAACTGTTTTGCTAAATAGATTTACCTTTTAAGAGGAGGAAT | 0.884 | – | –
17 | ACAGACGAAGGAGCCGCAAAGAAGTTATTAAGGGACGAATAATCCCTCATTATAAATATCTCTCACTTATTTAAA | – | 0.326 | cleaved RNA product abundance [3]: 0.215
18 | ACAGACGAAGGAGCCGCAAAGAAGTTATTAAGGGATGAATACTCCATCAATATAAATATCTCTCACTTATTTAAA | – | 0.137 | cleaved RNA product abundance [3]: 0.102; cleaved RNA product abundance [4]: 0.152
19 | ACAGACGAAGGAGCCGCAAAGAAGTTTTTAAGGTATGAATAATCCCTCAATATAAATATCTCTCACTTATTTAAA | – | 0.098 | –
20 | ACAGACGAAGGAGCCGCAAAGAAGTAATTAAGGGATGAATAAGCCCTCAATATAAATATCTCTCACTTATTTAAA | – | 0.149 | –
21 | CGACATGTCCCGCTTCTTTCATTAATCCGTTAACAACTGTTTTGCTATATACATTTATCTTTTAAGAGGAGGAAT | 0.236 | – | –

Row | Sequence | cleaved RNA product abundance [1] | cleaved RNA product abundance [2] | also measured
22 | ACAGACGAAGGAGCCGCAAAGAAGTTATTAAGGTATGACTAATCCCTCAATATAAATATCTCTCACTTATTTAAA | – | 0.107 | –
23 | ACAGACGAAGGAGCCGCAATGAAGTTATTTAGGGATGAATAATCCCTCAATATAAATATCTCTCACTTATTTAAA | – | 0.738 | –
24 | ACAGACGAAGGAGCCGCAAAGAAGTTATTAAGGACTGAATAATCCCTCAATATAAATATCTCTCACTTATTTAAA | – | 0.0888 | cleaved RNA product abundance [3]: 0.0791
25 | CGACATGTCCCGCTTCTTTCATTAATCCGTTTGCAACTGTTTTGCTATATACAATTACCTTTTAAGAGGAGGAAT | 0.478 | – | –
26 | ACAGACGAAGGAGCCGCAAAGAAGTTATTAAGGGATTAATAATCCCTCAACATAAATATCTCTCACTTATTTAAA | – | 0.444 | –
27 | CGACATGTCCCGCTTCTTTCATTAATCCGTTAGCAACTGTTTTGTTATATACATTTACCCTTTAAGAGGAGGAAT | 0.388 | – | –
28 | ACAGACGAAGGAGCCGCAAAGAAGTTATTAAGGGATAAATAATCCCTCAATATAAATAGCTCTCACTTATTTAAA | – | 0.553 | –
29 | ACAGACGAAGGAGCCGCATAGAAGTTATTAAGGGATGAATAATCCCTCAATATAAATATCTCTCACTTATTTAAA | – | 1.01 | cleaved RNA product abundance [3]: 1; cleaved RNA product abundance [4]: 1.06
30 | ACAGACGAAGGAGCCGCACAGAAGTTATTAAGGTATGAATAATCCCTCAATATAAATATCTCTCACTTATTTAAA | – | 0.198 | cleaved RNA product abundance [3]: 0.102
31 | CGACATGTCCCGCTTCTTTCATTAATCCGTTATCAACTGTTTTGCTGTATACATTTACCTTTTAAGAGGAGGAAT | 0.192 | – | –
32 | ACAGACGAAGGAGCCGCAAAGAAGTTATTAAGAGATGAATAGTCCCTCAATATAAATATCTCTCACTTATTTAAA | – | 0.136 | cleaved RNA product abundance [3]: 0.0992
33 | ACAGACGAAGGAGCCGCAAAGAAGTTATTAAGGGATGAATAATCCCTCAACATACATATCTCTCACTTATTTAAA | – | 0.273 | –
34 | CGACATGTCCCGCTTCTTTCATTAATTCGTTAGCAACTGTTTTGCCATATACATTTACCTTTTAAGAGGAGGAAT | 0.237 | – | –
35 | ACAGACGAAGGAGCCGCAAAGAAGTTATTAAGGCATGAATAATCCGTCAATATAAATATCTCTCACTTATTTAAA | – | 0.0753 | –
36 | ACAGACGAAGGAGCCGCACAGAAGTTATTAAGGGATGAATAATCCCTCAATAAAAATATCTCTCACTTATTTAAA | – | 0.116 | –
37 | ACAGACGAAGGAGCCGCAAAGAAGTTATTAAGGCATAAATAATCCCTCAATATAAATATCTCTCACTTATTTAAA | – | 0.107 | cleaved RNA product abundance [3]: 0.0865
38 | ACAGACGAAGGAGCCGCAAAGAAGTTATTAAAGGATGAATAATCCCTCAATATACATATCTCTCACTTATTTAAA | – | 0.17 | cleaved RNA product abundance [4]: 0.136
39 | ACAGACGAAGGAGCCGCAAAGAAGTTATTAAGGGATGGATACTCCCTCAATATAAATATCTCTCACTTATTTAAA | – | – | cleaved RNA product abundance [3]: 0.263
40 | ACAGACGAAGGAGCCGCAAAGAAGTTATTAAGGGATGATTAATTCCTCAATATAAATATCTCTCACTTATTTAAA | – | – | cleaved RNA product abundance [3]: 0.271
41 | CGACATGTCCCGCTTCTTTCATTAATCCTTTAGCAACTGTATTGCTATATACATTTACCTTTTAAGAGGAGGAAT | 0.83 | – | –
42 | CGACATGTCCCGCTTCTTTCATTATCCCGTTAGCAACTGTTTTGCTATATACTTTTACCTTTTAAGAGGAGGAAT | 0.41 | – | –
